Results reported in article PMC6420652.

Tests used:
AZIN (Homo sapiens) = AZIN (Homo sapiens) (UniProt O14977); assay: ultracentrifugation; conditions: cited from earlier work
[1] = biological target: antizyme-mRuby2 (antizyme with a C-terminal mRuby2 tag) (UniProt P54368); assay: FRET titration; conditions: parent: est. 24; read off a plot
antizyme-mRuby2 (antizyme with a C-terminal mRuby2 tag), sequence (P54368 whole entry): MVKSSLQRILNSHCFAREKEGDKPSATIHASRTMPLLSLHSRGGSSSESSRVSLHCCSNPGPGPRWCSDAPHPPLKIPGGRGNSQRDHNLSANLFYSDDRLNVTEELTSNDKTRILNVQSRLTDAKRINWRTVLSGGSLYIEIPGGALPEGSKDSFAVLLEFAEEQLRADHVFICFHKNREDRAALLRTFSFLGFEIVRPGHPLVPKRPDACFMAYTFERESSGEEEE

Clover-AZIN (antizyme inhibitor with an N-terminal Clover tag), sequence (O14977 whole entry, stated change not applied): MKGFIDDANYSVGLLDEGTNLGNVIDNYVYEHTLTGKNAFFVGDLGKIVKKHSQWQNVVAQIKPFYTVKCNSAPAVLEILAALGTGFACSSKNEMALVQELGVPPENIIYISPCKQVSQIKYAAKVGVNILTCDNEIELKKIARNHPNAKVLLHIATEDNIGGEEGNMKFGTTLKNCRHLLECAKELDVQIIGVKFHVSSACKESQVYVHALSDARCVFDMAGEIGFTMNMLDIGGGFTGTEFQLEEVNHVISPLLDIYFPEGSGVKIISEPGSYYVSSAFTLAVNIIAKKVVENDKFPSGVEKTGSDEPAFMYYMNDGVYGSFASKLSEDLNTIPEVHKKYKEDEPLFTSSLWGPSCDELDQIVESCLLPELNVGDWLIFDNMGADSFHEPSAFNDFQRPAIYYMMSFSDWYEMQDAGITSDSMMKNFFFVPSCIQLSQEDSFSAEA
AZIN (Homo sapiens), sequence (O14977 whole entry): as the sequence (O14977 whole entry, stated change not applied) above
Antizyme, sequence (P54368 whole entry): as the sequence (P54368 whole entry) above

| Substance | Kd (AZIN (Homo sapiens)) [nM] | Kd [1] [nM] |
| --- | --- | --- |
| Antizyme (from UniProt P54368) | 20 | – |
| Clover-AZIN (antizyme inhibitor with an N-terminal Clover tag) (from UniProt O14977) V137A | – | 11 |
